T1: human IGFBP-4 with N-terminal 6His tag, P22692
T1 chain: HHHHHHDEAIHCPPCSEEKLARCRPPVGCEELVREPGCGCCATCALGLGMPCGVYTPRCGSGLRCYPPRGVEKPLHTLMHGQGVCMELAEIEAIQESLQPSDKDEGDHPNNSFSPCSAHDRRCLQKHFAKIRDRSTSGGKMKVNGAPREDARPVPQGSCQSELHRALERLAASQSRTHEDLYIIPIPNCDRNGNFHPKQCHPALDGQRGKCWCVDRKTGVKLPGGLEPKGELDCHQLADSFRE

T2: human IGFBP-2 with N-terminal 6His tag, P18065
T2 chain: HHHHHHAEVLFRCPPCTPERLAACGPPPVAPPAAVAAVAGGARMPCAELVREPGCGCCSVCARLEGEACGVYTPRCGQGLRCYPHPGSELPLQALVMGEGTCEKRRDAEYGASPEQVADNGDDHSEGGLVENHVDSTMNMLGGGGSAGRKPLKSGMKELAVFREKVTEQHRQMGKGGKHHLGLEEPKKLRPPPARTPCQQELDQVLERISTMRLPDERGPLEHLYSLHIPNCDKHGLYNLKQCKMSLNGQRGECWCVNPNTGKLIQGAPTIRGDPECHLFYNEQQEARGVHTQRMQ

T3: murine IGFBP-4 with C-terminal 6His tag, P47879
T3 chain: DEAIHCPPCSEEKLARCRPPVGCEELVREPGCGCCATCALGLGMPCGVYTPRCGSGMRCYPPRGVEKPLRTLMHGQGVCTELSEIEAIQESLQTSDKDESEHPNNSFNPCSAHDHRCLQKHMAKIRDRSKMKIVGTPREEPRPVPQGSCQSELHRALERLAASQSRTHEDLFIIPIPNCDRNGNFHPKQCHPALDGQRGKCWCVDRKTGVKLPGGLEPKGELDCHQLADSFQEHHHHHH

T4: murine IGFBP-5 with C-terminal 6His tag, Q07079
T4 chain: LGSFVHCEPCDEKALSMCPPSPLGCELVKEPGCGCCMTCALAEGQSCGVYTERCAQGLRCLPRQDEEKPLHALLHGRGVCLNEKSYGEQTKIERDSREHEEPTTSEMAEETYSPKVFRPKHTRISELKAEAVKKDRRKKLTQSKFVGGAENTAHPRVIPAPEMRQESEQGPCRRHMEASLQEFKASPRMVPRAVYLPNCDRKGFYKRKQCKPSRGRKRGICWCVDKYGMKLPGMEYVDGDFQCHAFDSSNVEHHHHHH

T5: murine IGFBP-2 with C-terminal 6His tag, P47877
T5 chain: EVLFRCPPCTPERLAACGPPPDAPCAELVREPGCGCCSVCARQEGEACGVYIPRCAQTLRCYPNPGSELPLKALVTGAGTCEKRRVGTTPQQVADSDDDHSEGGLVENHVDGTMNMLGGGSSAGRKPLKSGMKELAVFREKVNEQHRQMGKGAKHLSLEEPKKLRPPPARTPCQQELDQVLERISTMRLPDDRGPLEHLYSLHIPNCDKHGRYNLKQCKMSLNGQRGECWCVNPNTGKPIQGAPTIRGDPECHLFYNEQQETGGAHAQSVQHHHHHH

B1: human PAPP-A protein with C-terminal C-myc and Flag tags (protein)
chain: EARGATEEPSPPSRALYFSGRGEQLRVLRADLELPRDAFTLQVWLRAEGGQRSPAVITGLYDKCSYISRDRGWVVGIHTISDQDNKDPRYFFSLKTDRARQVTTINAHRSYLPGQWVYLAATYDGQFMKLYVNGAQVATSGEQVGGIFSPLTQKCKVLMLGGSALNHNYRGYIEHFSLWKVARTQREILSDMETHGAHTALPQLLLQENWDNVKHAWSPMKDGSSPKVEFSNAHGFLLDTSLEPPLCGQTLCDNTEVIASYNQLSSFRQPKVVRYRVVNLYEDDHKNPTVTREQVDFQHHQLAEAFKQYNISWELDVLEVSNSSLRRRLILANCDISKIGDENCDPECNHTLTGHDGGDCRHLRHPAFVKKQHNGVCDMDCNYERFNFDGGECCDPEITNVTQTCFDPDSPHRAYLDVNELKNILKLDGSTHLNIFFAKSSEEELAGVATWPWDKEALMHLGGIVLNPSFYGMPGHTHTMIHEIGHSLGLYHVFRGISEIQSCSDPCMETEPSFETGDLCNDTNPAPKHKSCGDPGPGNDTCGFHSFFNTPYNNFMSYADDDCTDSFTPNQVARMHCYLDLVYQGWQPSRKPAPVALAPQVLGHTTDSVTLEWFPPIDGHFFERELGSACHLCLEGRILVQYASNASSPMPCSPSGHWSPREAEGHPDVEQPCKSSVRTWSPNSAVNPHTVPPACPEPQGCYLELEFLYPLVPESLTIWVTFVSTDWDSSGAVNDIKLLAVSGKNISLGPQNVFCDVPLTIRLWDVGEEVYGIQIYTLDEHLEIDAAMLTSTADTPLCLQCKPLKYKVVRDPPLQMDVASILHLNRKFVDMDLNLGSVYQYWVITISGTEESEPSPAVTYIHGRGYCGDGIIQKDQGEQCDDMNKINGDGCSLFCRQEVSFNCIDEPSRCYFHDGDGVCEEFEQKTSIKDCGVYTPQGFLDQWASNASVSHQDQQCPGWVIIGQPAASQVCRTKVIDLSEGISQHAWYPCTISYPYSQLAQTTFWLRAYFSQPMVAAAVIVHLVTDGTYYGDQKQETISVQLLDTKDQSHDLGLHVLSCRNNPLIIPVVHDLSQPFYHSQAVRVSFSSPLVAISGVALRSFDNFDPVTLSSCQRGETYSPAEQSCVHFACEKTDCPELAVENASLNCSSSDRYHGAQCTVSCRTGYVLQIRRDDELIKSQTGPSVTVTCTEGKWNKQVACEPVDCSIPDHHQVYAASFSCPEGTTFGSQCSFQCRHPAQLKGNNSLLTCMEDGLWSFPEALCELMCLAPPPVPNADLQTARCRENKHKVGSFCKYKCKPGYHVPGSSRKSKKRAFKTQCTQDGSWQEGACVPVTCDPPPPKFHGLYQCTNGFQFNSECRIKCEDSDASQGLGSNVIHCRKDGTWNGSFHVCQEMQGQCSVPNELNSNLKLQCPDGYAIGSECATSCLDHNSESIILPMNVTVRDIPHWLNPTRVERVVCTAGLKWYPHPALIHCVKGCEPFMGDNYCDAINNRAFCNYDGGDCCTSTVKTKKVTPFPMSCDLQGDCACRDPQAQEHSRKDLRGYSHG
B2: murine PAPP-A protein with C-terminal C-myc and Flag tags (protein)
chain: RGAEEPSPPSRALYFSGRGEQLRLRADLELPRDAFTLQVWLRAEGGQKSPAVITGLYDKCSYTSRDRGWVMGIHTTSDQGNRDPRYFFSLKTDRARKVTTIDAHRSYLPGQWVHLAATYDGRLMKLYMNGAQVATSAEQVGGIFSPLTQKCKVLMLGGSALNHNFRGHIEHFSLWKVARTQREIVSDMETRGLHTPLPQLLLQENWDNVKRTWSPMKDGNSPQVEFSNAHGFLLDTNLEPPLCGQTLCDNTEVISSYNQLPSFRQPKVVRYRVVNIYDDHHENPTVSWQQIDFQHQQLAEAFQHYNISWELEVLNINSSSLRHRLILANCDISKIGDEKCDPECNHTLTGHDGGDCRQLRYPAFMKKQQNGVCDMDCNYERFNFDGGECCDPDITDVTKTCFDPDSPHRAYLDVNELKNILRLDGSTHLNIFFANSSEEELAGVATWPWDKEALMHLGGIVLNPSFYGIPGHTHTMIHEIGHSLGLYHIFRGISEIQSCSDPCMETEPSFETGDLCNDTNPAPKHKFCGDPGPGNDTCGFHGFFNTPYNNFMSYADDDCTDSFTPNQVSRMHCYLDLVYQSWQPSRKPAPVALAPQVVGHTMDSVMLEWFPPIDGHFFERELGSACDLCLEGRILVQYAFNASSPMPCGPSGHWSPREAEGHPDVEQPCKSSVRTWSPNSAVNPHTVPPACPEPQGCYLELEFRYPLVPESLTIWVTFVSSDWDSSGAVNDIKLLTISGKNISLGPQNVFCDIPLTIRLRDVGEEVYGIQIYTLDEHLEIDAAMLTSTVDSPLCLQCKPLQYKVLRDPPLLEDVASLLHLNRRFMDTDLKLGSVYQYRIITISGNEESEPSPAAIYTHGSGYCGDGVIQKDQGEECDDMNKVNGDGCSLFCKQEVSFNCIDEPSRCYFHDGDGMCEEFEQKTSIKDCGVYTPQGFLDQWASNASVSHQDQQCPGWVVIGQPAASQVCRTKVIDLSEGISQHAWYPCTITYPYYHLPQTTFWLQTYFSQPMVAAAVIIHLVTDGTYYGDQKQETISVQLLDTKDQSHDLGLHVLSCRNNPLIIPVVHDLSQPFYHSQAVHVSFSSPLVAISGVALRSFDNFDPVTLSSCQRGETYSPAEQSCVHFACQAADCPELAVGNASLNCSSNHHYHGAQCTVSCQTGYVLQIQRDDELIKSQVGPSITVTCTEGKWNKQVACEPVDCGIPDHHHVYAASFSCPEGTTFGRRCSFQCRHPAQLKGNNSFLTCMEDGLWSFPEALCELMCLAPPPVPNADLQTARCRENKHKVGSFCKYKCKPGYHVPGSSRKSKKRAFKTQCTQDGSWQEGTCVPVTCDPPPPKFHGLYQCTNGFQFNSECRIKCEDSDASQGRGSNIIHCRKDGTWSGSFHVCREMQGQCSAPNQLNSNLKLQCPDGYAIGSECAISCLDHNSESIILPVNLTVRDIPHWMNPTRVQRIVCTAGLQWYPHPALIHCVKGCEPFMGDNYCDAINNRAFCNYDGGDCCTSTVKTKKVTPFPMSCDLQNDCACRDPEAQEHNRKDLRGYSHG

Legend:
[1] = target: T1, human IGFBP-4 with N-terminal 6His tag, …
[2] = target: T2, human IGFBP-2 with N-terminal 6His tag, …
[3] = target: five representative anti-PAPP-A antibodies generated from yeast display libraries
[4] = target: human IGFBP-5 with N-terminal 6His tag, P24593
Chain of human IGFBP-5 with N-terminal 6His tag, P24593 (P24593 other isoform, or with tags, fused parts or gaps): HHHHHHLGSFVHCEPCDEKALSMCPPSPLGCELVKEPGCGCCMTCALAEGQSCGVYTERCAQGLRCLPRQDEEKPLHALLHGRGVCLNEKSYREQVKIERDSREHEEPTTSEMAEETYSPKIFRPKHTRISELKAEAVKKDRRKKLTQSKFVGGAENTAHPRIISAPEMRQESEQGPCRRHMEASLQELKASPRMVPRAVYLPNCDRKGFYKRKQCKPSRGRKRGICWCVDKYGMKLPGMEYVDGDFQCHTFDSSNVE

[5] = target: T3, murine IGFBP-4 with C-terminal 6His …
[6] = target: T4, murine IGFBP-5 with C-terminal 6His …
[7] = target: T5, murine IGFBP-2 with C-terminal 6His …

Protein | enzymatic cleavage of IGFBP by PAPP-A [1] | enzymatic cleavage of IGFBP by PAPP-A [2] | PAPP-A cleavage of human IGFBP4 at one antibody concentration (50 nM) [3] | enzymatic cleavage of IGFBP by PAPP-A [4] | enzymatic cleavage of IGFBP by PAPP-A [5] | enzymatic cleavage of IGFBP by PAPP-A [6] | enzymatic cleavage of IGFBP by PAPP-A [7]
B1 | cleavage of both human and murine IGFBP-4 and IGFBP-2 by PAPP-A | cleavage of both human and murine IGFBP-4 and IGFBP-2 by PAPP-A | the five representative antibodies effectively blocking cleavage of human IGFBP4 | PAPP-A's ability to cleave IGFBP-5 |  |  | 
B2 |  |  |  |  | cleavage of both human and murine IGFBP-4 and IGFBP-2 by PAPP-A | PAPP-A's ability to cleave IGFBP-5 | cleavage of both human and murine IGFBP-4 and IGFBP-2 by PAPP-A
